The values that follow come from PMC7745063, “Investigating the reaction and substrate preference of indole-3-acetaldehyde dehydrogenase from the plant pathogen Pseudomonas syringae PtoDC3000” (Bioscience Reports, 2020).

For orientation: stoichiometry N means a count of units in the complex or per binding partner.

Data set [1] concerns the molecule itself. The data set is described as follows: crystal structure; AldA C302A with IAA and NAD+, hanging drop at 4°C, 24% PEG-1000, 100 mM Tris/HCl pH 7.0; 2.85 Å; eight monomers in the asymmetric unit.
Data set [2] deals with the molecule itself. The data set is described as follows: SEC.

B1: AldA C302A mutant (enzyme)
chain: MTTLTRADWEQRAQNLKIEGRAFIQGEYTAAASGETFDCISPVDGRLLAKVASCDAADAQRAVESARSAFDSGAWSRLAPAKRKATMIRFAGLLEQNAEELALLETLDMGKPISDSLGVDIPGGARALSWSGEAIDKLYDEVAATPHDQLGLVTREPVGVVAAIVPWNFPLMMACWKLGPALSTGNSVVLKPSEKSPLTAIRIAQLAIEAGIPAGVLNVLPGYGHTVGKALALHMDVDTVVFTGSTKIAKQLMIYAGESNMKRVWLEAGGKSPNIVFADAPDLQAAADSAASAIAFNQGEVATAGSRLLVERSIKDRFLPMVIEALGTWKPGNPLDPATNVGALVDTQQMNTVLSYIAAGHTDGARLVAGGKQILQETGGTYVEPTIFDGVNNAMRIAQEEIFGPVLSVLTFDTAEEAIQIANDTPYGLAAAVWTANLSKAHLTARALRAGSVWVNQYDGGDMTAPFGGFKQSGNGRDKSLHAFDKYTELKSTWIKL
notes: source: E. coli BL21 (DE3), purified (Ni-NTA, Superdex-200 size-exclusion)
As to B1, in data set [1], the “stoichiometry N” value was 4.

B2: AldA E267Q mutant (enzyme)
chain: MTTLTRADWEQRAQNLKIEGRAFIQGEYTAAASGETFDCISPVDGRLLAKVASCDAADAQRAVESARSAFDSGAWSRLAPAKRKATMIRFAGLLEQNAEELALLETLDMGKPISDSLGVDIPGGARALSWSGEAIDKLYDEVAATPHDQLGLVTREPVGVVAAIVPWNFPLMMACWKLGPALSTGNSVVLKPSEKSPLTAIRIAQLAIEAGIPAGVLNVLPGYGHTVGKALALHMDVDTVVFTGSTKIAKQLMIYAGESNMKRVWLQAGGKSPNIVFADAPDLQAAADSAASAIAFNQGEVCTAGSRLLVERSIKDRFLPMVIEALGTWKPGNPLDPATNVGALVDTQQMNTVLSYIAAGHTDGARLVAGGKQILQETGGTYVEPTIFDGVNNAMRIAQEEIFGPVLSVLTFDTAEEAIQIANDTPYGLAAAVWTANLSKAHLTARALRAGSVWVNQYDGGDMTAPFGGFKQSGNGRDKSLHAFDKYTELKSTWIKL
notes: as for B1
As for B2, the “stoichiometry N” value in data set [2] came out at 4.

B3: AldA E267A mutant (enzyme)
chain: MTTLTRADWEQRAQNLKIEGRAFIQGEYTAAASGETFDCISPVDGRLLAKVASCDAADAQRAVESARSAFDSGAWSRLAPAKRKATMIRFAGLLEQNAEELALLETLDMGKPISDSLGVDIPGGARALSWSGEAIDKLYDEVAATPHDQLGLVTREPVGVVAAIVPWNFPLMMACWKLGPALSTGNSVVLKPSEKSPLTAIRIAQLAIEAGIPAGVLNVLPGYGHTVGKALALHMDVDTVVFTGSTKIAKQLMIYAGESNMKRVWLAAGGKSPNIVFADAPDLQAAADSAASAIAFNQGEVCTAGSRLLVERSIKDRFLPMVIEALGTWKPGNPLDPATNVGALVDTQQMNTVLSYIAAGHTDGARLVAGGKQILQETGGTYVEPTIFDGVNNAMRIAQEEIFGPVLSVLTFDTAEEAIQIANDTPYGLAAAVWTANLSKAHLTARALRAGSVWVNQYDGGDMTAPFGGFKQSGNGRDKSLHAFDKYTELKSTWIKL
notes: as for B1
For the protein B3, in data set [2], the “stoichiometry N” value amounted to 4.

B4: AldA indole-3-acetaldehyde dehydrogenase from Pseudomonas syringae strain PtoDC3000, wild-type (enzyme)
chain: MTTLTRADWEQRAQNLKIEGRAFIQGEYTAAASGETFDCISPVDGRLLAKVASCDAADAQRAVESARSAFDSGAWSRLAPAKRKATMIRFAGLLEQNAEELALLETLDMGKPISDSLGVDIPGGARALSWSGEAIDKLYDEVAATPHDQLGLVTREPVGVVAAIVPWNFPLMMACWKLGPALSTGNSVVLKPSEKSPLTAIRIAQLAIEAGIPAGVLNVLPGYGHTVGKALALHMDVDTVVFTGSTKIAKQLMIYAGESNMKRVWLEAGGKSPNIVFADAPDLQAAADSAASAIAFNQGEVCTAGSRLLVERSIKDRFLPMVIEALGTWKPGNPLDPATNVGALVDTQQMNTVLSYIAAGHTDGARLVAGGKQILQETGGTYVEPTIFDGVNNAMRIAQEEIFGPVLSVLTFDTAEEAIQIANDTPYGLAAAVWTANLSKAHLTARALRAGSVWVNQYDGGDMTAPFGGFKQSGNGRDKSLHAFDKYTELKSTWIKL
notes: also called wild-type AldA; WT; source: E. coli BL21 (DE3), purified (Ni-NTA, Superdex-200 size-exclusion)
Turning to B4, the “stoichiometry N” value in data set [2] stood at 4.
